Reference: patent EP2172481A1

Target: oocyst extract
Test: antigen binding analysis on oocyst extract; method not stated

B1: Di-kappa-body (protein)
chain: QVQLQQSGPELVKPGASVKMSCKASGYTFTVYIIHWLKQKPGQGLEWIGYINPYNDGTKYNEKFRGKATLTSDKSSSTAYMELSSLTSEDSAVYYCARFYYGSSSVFDYWGQGTTLTVSSGGSGGSDVVMTQTQKFMSTSVGDRVSVTCKASQNVGTNVAWYQQKPGQSPKALIYSASYRYSGVPDRFTGSGSGTDFTLTISNVQSEDLAEYFCQQYNSYPLTFGAGTKLELKRTVAAPSVFIFPPSDEQLKSGTASVVCLLNNFYPREAKVQWKVDNALQSGNSQESVTEQDSKDSTYSLSSTLTLSKADYEKHKVYACEVTHQGLSSPVTKSFNRGEC
B1 was tested, and the Kd was 0.55 nM.
